Earlier results in publication PMC4664823.

Tests used:
Asp14 = Asp14 (UniProt position 14, GAILADVIGTT); conditions: competition between substrate and protons; various preparations in earlier work
Glu14 = Glu14 (UniProt position 14, GAILAEVIGTT); conditions: competition between substrate and protons; various preparations in earlier work

Substance | pKa (Asp14) | pKa (Glu14)
E14D-EmrE (Escherichia coli; E14D) | ≈5.0–6.7 and ≈5.4 | 
EmrE (small multidrug resistance transporter), wild type (Escherichia coli) |  | 6.8 to 8.5 and ≈7.3
